The values that follow come from US20090111753A1, “Nogo-A Polypeptide Fragments, Variant Nogo Receptor-1 Polypeptides, and Uses Thereof” (Yale University, priority 2004, published 2009).

One assay concerns AP-MAG. In words: Binding of AP-MAG to COS-7 cells expressing NgR mutants. Also noted: key: ++: WT level; +: weaker than wild type; trace binding; −: no binding. The following applies: AP-MAG 30 nM; level of binding compared to wild type NgR. How it is done:
(§1) FIG. 4A. […] Binding of AP or AP fused NgR ligands to COS-7 cells expressing different NgR mutants as indicated. The concentrations of ligands applied were: AP, 30 nM; AP-Ng66, 5 nM; AP-Ng33, 10 nM; AP-B4C, 10 nM; AP-B4C66, 0.5 nM; AP-Lingo-1, 10 nM; AP-OMGP, 10 nM; AP-MAG, 30 nM. These concentrations are close to the binding Kd of these proteins to NgR so that any […] is reflected linearly in staining.
(§2) FIG. 4B. AP binding of NgR ligands to NgR mutants expressed as percentage of wild type NgR. AP after incubation with AP fused ligands, AP bound to COS-7 cells expressing NgR or NgR mutants were stained and measured.
(§3) To better define how multiple ligands bind to the NgR protein, we examined a series of Ala-substituted NgR for ligand binding activity. NgR mutagenesis was done using the Quick Change Multisite Directed Mutagenesis Kit (Stratagene catalog #200514). Human NgR1 was used as a template. Ala substitutions were generated for each of the charged residues predicted to be solvent accessible at the surface of the ligand binding domain of NgR (Barton, W. A., et al., Embo J. 22:3291-3302 (2003); He, X. L., et al., Neuron 38:177-185 (2003)). We generated mutants in which 1-8 surface residues localized within 5 A of one another were Ala-substituted. Because of the coiling nature of the LRR structure, as residues juxtaposed on the protein surface are commonly separated by approximately 25 residues in the primary structure. In addition to mutations in specific charged surface patches, other mutations were targeted to glycosylation sites and to regions predicted to be involved in ligand binding based on the NgR structure (Barton, W. A., et al., Embo J. 22:3291-3302 (2003); He, X. L., et al., Neuron 38:177-185 (2003)). In addition, a variant corresponding to a human polymorphism was examined (D259N). None of the mutations altered the Leu residues that define the LRR structure itself or the Cys residues critical in the amino and carboxyl terminal capping domains. The vast majority of such Ala surface substitution mutants were expressed as immunoreactive polypeptides with a molecular weight and an expression level indistinguishable from wild type NgR (FIG. 4C and data not shown).
(§4) This collection of 74 individual NgR mutants was interrogated for AP-Nogo-66, AP-Amino-Nogo-B4C, AP-MAG, AP-OMgp, and AP-Lingo-1 binding. AP-Nogo66, AP-MAG, AP-OMGP and AP-Lingo-1 constructs are described elsewhere (Fournier, A. E., et al., Nature 409:341-346 (2001); Liu, B. P., et al., Science 297:1190-1193 (2002); Mi, S., et al., Nat. Neurosci. 7:221-228 (2004); Wang, K. C., et al., Nature 417:941-944 (2002b)). The properties of the NgR mutants fell into one of three major categories (Table II and FIG. 5). A number of Ala substituted NgR polypeptides bound all of the ligands at wild type levels. […] In addition, a significant extent of the concave surface is dispensable for ligand binding.
(§5) Binding of Alanine substituted NgR mutants to NgR ligands were compared to wild type NgR and the levels of binding were categorized as ++ (WT level), + (weaker than wild type), tr (trace binding), − (no binding), N/A (not determined). NgR mutant proteins were also subjected to SDS-PAGE and probed by anti-NgR antibodies. Mutants with expression level similar to WT NgR were labeled as “y”.

Another assay has as its target T1, AP-B4C (Homo sapiens, UniProt Q9NQC3).
T1 construct: a.a; 950-1018 (AmNg B4C); made in house; host or cells: AP ligand: HEK293T conditioned medium; NgR mutants: COS-7
T1 sequence (Q9NQC3 950-1018): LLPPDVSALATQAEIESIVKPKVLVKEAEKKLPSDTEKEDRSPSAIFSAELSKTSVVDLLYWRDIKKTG
In words: Binding of AP-B4C to COS-7 cells expressing NgR mutants. Further details: key: ++: WT level; +: weaker than wild type; trace binding; −: no binding. The settings on record: AP-B4C 10 nM; level of binding compared to wild type NgR. How it is done: as §1, §2, §3, §4, §5

The target of the next assay is T2, AP-Lingo-1 (Homo sapiens, UniProt Q96FE5).
T2 construct: made in house; NgR mutants: COS-7
T2 sequence (Q96FE5 40-538 limits assumed): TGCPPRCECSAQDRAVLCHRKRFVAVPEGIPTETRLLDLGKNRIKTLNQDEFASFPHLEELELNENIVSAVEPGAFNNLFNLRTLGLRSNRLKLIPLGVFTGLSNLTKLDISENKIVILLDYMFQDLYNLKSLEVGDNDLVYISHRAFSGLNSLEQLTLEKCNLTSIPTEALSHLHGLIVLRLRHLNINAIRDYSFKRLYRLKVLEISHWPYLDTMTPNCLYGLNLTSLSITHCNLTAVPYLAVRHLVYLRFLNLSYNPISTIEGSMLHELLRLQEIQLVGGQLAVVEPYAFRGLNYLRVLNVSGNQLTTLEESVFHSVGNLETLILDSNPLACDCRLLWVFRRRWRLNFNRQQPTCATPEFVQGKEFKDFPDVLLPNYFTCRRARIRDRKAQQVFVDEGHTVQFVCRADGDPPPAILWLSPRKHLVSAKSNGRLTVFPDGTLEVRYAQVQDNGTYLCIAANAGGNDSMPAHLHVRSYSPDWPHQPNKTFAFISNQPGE
In words: Binding of AP-Lingo-1 to COS-7 cells expressing NgR mutants. The following applies: AP-Lingo-1 10 nM; level of binding compared to wild type NgR. Further details: key: ++: WT level; +: weaker than wild type; trace binding; −: no binding. How it is done: as §1, §2, §3, §4, §5

For a further assay, the system named is AP-OMgp. In words: Binding of AP-OMgp to COS-7 cells expressing NgR mutants. The settings on record: AP-OMGP 10 nM; level of binding compared to wild type NgR. Further details: key: ++: WT level; +: weaker than wild type; trace binding; −: no binding. On the procedure:
as §1, §2, §3, §4, §5

The subject of the next assay is NgR ligands. In words: Binding of alanine substituted NgR mutants to NgR ligands, summary categories. The following applies: AP-Nogo66, AP-B4C, AP-B4C66, AP-Lingo-1, AP-OMgp and AP-MAG; compared to wild type NgR.
Source text: as §3, §4
Alanine substituted NgR mutants were tested for their binding to AP-Nogo66, AP-B4C, AP-B4C66, AP-Lingo-1, AP-OMgp and AP-MAG and they fall into three categories: (1) Mutants that lose binding to all NgR ligands. (2) Mutants that still maintain binding to all NgR ligands. […] The D259N mutant is an asparagine substitution to mimic a human polymorphism.

In the next assay the target is T3, AP-Nogo66 (Homo sapiens, UniProt Q9NQC3).
T3 construct: made in house; NgR mutants: COS-7
T3 sequence (Q9NQC3 1055-1120 limits assumed): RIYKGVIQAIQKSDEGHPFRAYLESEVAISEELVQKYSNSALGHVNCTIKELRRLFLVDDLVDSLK
In words: Binding of AP-Nogo66 to COS-7 cells expressing NgR mutants. Further details: key: ++: WT level; +: weaker than wild type; trace binding; −: no binding. The settings on record: AP-Ng66 5 nM; level of binding compared to wild type NgR. On the procedure: as §1, §2, §3, §4, §5

In another assay the test system is AP-B4C66. In words: Binding of AP-B4C66 to COS-7 cells expressing NgR mutants. Also noted: key: ++: WT level; +: weaker than wild type; trace binding; −: no binding. The following applies: AP-B4C66 0.5 nM; level of binding compared to wild type NgR. How it is done:
as §1, §2, §3, §4, §5

B1: 256, 259: human NgR1 mutant, listed residues mutated to alanine (protein)
chain: CPGACVCYNEPKVTTSCPQQGLQAVPVGIPAASQRIFLHGNRISHVPAASFRACRNLTILWLHSNVLARIDAAAFTGLALLEQLDLSDNAQLRSVDPATFHGLGRLHTLHLDRCGLQELGPGLFRGLAALQYLYLQDNALQALPDDTFRDLGNLTHLFLHGNRISSVPERAFRGLHSLDRLLLHQNRVAHVHPHAFRDLGRLMTLYLFANNLSALPTEALAPLRALQYLALNANPWVCDCRARPLWAWLQKFRGSSSEVPCSLPQRLAGRDLKRLAANDLQGCAVATGPYHPIWTGRATDEEPLGLPKCCQPDAADKASVLEPGRPASAGNALKGRVPPGDSPPGNGSGPRHINDSPFGTLPGSAEPPLTAVRPEGSEPPGFPTSGPRRRPGCSRKNRTRSHCRLGQAGSGGGGTGDSEGSGALPSLTCSLTPLGLALVLWTVLGPC
B1: in the assay on AP-MAG, the MAG entry is “−”. For the same molecule, in the assay with AP-B4C, the B4C entry is listed as “++”. Also, the Lingo-1 result in the assay with AP-Lingo-1 is recorded as “++”. In addition, the OMgp result in the assay on AP-OMgp is listed as “+”. Moreover, the “ligand binding category of NgR mutant (Table II)” value in the assay on NgR ligands is reported as “Differential binding”. The Ng66 result with AP-Nogo66 is listed as “++”. In the assay with AP-B4C66, the B4C-66 entry is given as “++”.

B2: 78, 81: human NgR1 mutant, listed residues mutated to alanine (protein)
chain: CPGACVCYNEPKVTTSCPQQGLQAVPVGIPAASQRIFLHGNRISHVPAASFAACANLTILWLHSNVLARIDAAAFTGLALLEQLDLSDNAQLRSVDPATFHGLGRLHTLHLDRCGLQELGPGLFRGLAALQYLYLQDNALQALPDDTFRDLGNLTHLFLHGNRISSVPERAFRGLHSLDRLLLHQNRVAHVHPHAFRDLGRLMTLYLFANNLSALPTEALAPLRALQYLRLNDNPWVCDCRARPLWAWLQKFRGSSSEVPCSLPQRLAGRDLKRLAANDLQGCAVATGPYHPIWTGRATDEEPLGLPKCCQPDAADKASVLEPGRPASAGNALKGRVPPGDSPPGNGSGPRHINDSPFGTLPGSAEPPLTAVRPEGSEPPGFPTSGPRRRPGCSRKNRTRSHCRLGQAGSGGGGTGDSEGSGALPSLTCSLTPLGLALVLWTVLGPC
With B2, the B4C entry in the assay with AP-B4C was “++”. In addition, in the assay with AP-Lingo-1, the Lingo-1 result is on record as “tr”. Moreover, in the assay on AP-OMgp, the OMgp entry is on record as “++”. Further, in the assay with NgR ligands, the “ligand binding category of NgR mutant (Table II)” value is listed as “Differential binding”. For the same molecule, the Ng66 entry with AP-Nogo66 is listed as “++”. The B4C-66 result in the assay on AP-B4C66 is recorded as “++”.

B3: WT: wild type human NgR1 expressed in COS-7 cells (protein, UniProt Q9BZR6 27-447, looked up)
Reticulon-4 receptor: CPGACVCYNEPKVTTSCPQQGLQAVPVGIPAASQRIFLHGNRISHVPAASFRACRNLTILWLHSNVLARIDAAAFTGLALLEQLDLSDNAQLRSVDPATFHGLGRLHTLHLDRCGLQELGPGLFRGLAALQYLYLQDNALQALPDDTFRDLGNLTHLFLHGNRISSVPERAFRGLHSLDRLLLHQNRVAHVHPHAFRDLGRLMTLYLFANNLSALPTEALAPLRALQYLRLNDNPWVCDCRARPLWAWLQKFRGSSSEVPCSLPQRLAGRDLKRLAANDLQGCAVATGPYHPIWTGRATDEEPLGLPKCCQPDAADKASVLEPGRPASAGNALKGRVPPGDSPPGNGSGPRHINDSPFGTLPGSAEPPLTAVRPEGSEPPGFPTSGPRRRPGCSRKNRTRSHCRLGQAGSGGGGTGDSEGS
On to B3, for which the MAG result with AP-MAG is recorded as “++”. Moreover, the B4C entry in the assay with AP-B4C was “++”. In addition, in the assay with AP-Lingo-1, the Lingo-1 entry is “++”. Besides, the OMgp entry with AP-OMgp is recorded as “++”. Further, the Ng66 entry with AP-Nogo66 is “++”. For the same molecule, the B4C-66 entry in the assay on AP-B4C66 was “++”.
